Laboratory results: patent US20100310588A1

Target: BDC2.5 T cell receptor (transgenic TCR alpha/beta of BDC2.5 TCR Tg mice) (mouse)
Experiment: cell-based or functional assay

- fold expansion of antigen-specific cells during the 10 day culture (lowest seeding, 0.001%): 5000 fold
Substance: p31-I-A^g7 multimer (recombinant MHC class II I-A^g7 presenting the BDC2.5 TCR mimotope peptide 1040-31) (peptide-MHC)
